± gives the half width of the 95% confidence interval.
Experiment: folding stability dG unfold from trypsin proteolysis; higher = more stable
Procedure, shortened: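 Unfolding free energy was derived, per protease or combined, by relating Bayesian-fitted K50 values from sequencing counts to a sequence-predicted unfolded-state K50 and a shared folded-state K50. The underlying digests exposed cysteine-free mini-proteins under 80 residues, in a PA-tagged cDNA display construct, to trypsin and chymotrypsin at 11 threefold-diluted concentrations and to a no-protease condition. A filter kept only designs with AlphaFold2 dimer inter-PAE above 15.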

Sequence	folding stability dG unfold
SAGGSAGGSAGIRIYWDPENGWYRVKYPDPDGKPVDEHPMPPDQLPEFLQAGNIEVEPWPSAGGSAGGSAGG [r11_159_TrROS]	0.759 ± 0.035 kcal/mol
SAGGSAGGSAGGMEVKVEEFVENGKPVVREFYPDSIKVTTYTFDENGNVTEKKEYVIPKESAGGSAGGSAGG [r7_722_JUSTAS]	0.413 ± 0.061 kcal/mol
SGKKIEIVKKILEELGIPIVKIEEVTPDRIVVEVEEGRRISIAIKPDDPDVVLIDPKPTEDGGWSSDLPDSA [r9_809_TrMRF]	1.26 ± 0.038 kcal/mol
SADPSRGMTLTVETKELPGKGLLLVTITTSGTVEEALAYVEELAKELGAEIEILEVNENTIVVKLKVLKSAG [r14_172_JUSTAS]	1.97 ± 0.026 kcal/mol
SAGGSAGGSAGKKTLPTYDPKKGKISLIVIEDKEGKEIVFEAFGDGKEFIEAAKEFEKKISAGGSAGGSAGG [r11_119_TrMRF]	-0.463 ± 0.12 kcal/mol
SAGGSAGGSAGGPTIVIKDVKGLTPEQAEALARDLLKELGLEDADVRLERGEDGDLTFTYSAGGSAGGSAGG [r7_810_TrMRF]	1.68 ± 0.034 kcal/mol
SAGGSAPVVRVEIVVLGTGEVRTLTLEEAKRFLEAHPDKIDRVLVRVEVFEPDASTSDDVDPDGVPSAGGSA [r15_99_TrMRF]	2.03 ± 0.034 kcal/mol
SAGGMKVEIEIEEEPETGKVKITIKIDDVEIEIEATEEEIEKLIEEIEKIKAEPKLTEDGKLVPVIGSAGGS [r8_332_TrMRF]	1.94 ± 0.24 kcal/mol
SAGGSAGGSKIKIIVPKEKEEEAERLAKELKEKGEIPEVEIEVVESEEEAKELEEKADLVIVVSAGGSAGGS [r12_679_TrROS_Hall]	-0.562 ± 0.43 kcal/mol
SAGGSAGGSAGRVVKITLPDGSSLDIDVPADDDLTKEEIEARLTVPPGEKVSIKSIEILEESAGGSAGGSAG [r3_465_JUSTAS]	0.0468 ± 0.037 kcal/mol
SAGGSAGGSAKKKVKVVEIKITYDKEKNEYYIEAKVYNENTGETKTVRIKVKLKPGQKLKFSAGGSAGGSAG [r3_1_TrROS_Hall]	1.65 ± 0.041 kcal/mol
SAGGAVLTTEDPEKISLTFYSPEGAVLGSEEIEVEPPEIVLTNVPPEEAAAIKKENPDVPISLNPALGSAGG [r13_235_JUSTAS]	0.956 ± 0.03 kcal/mol
SAGGRIVINLNPENGYLMISIRMPHRRYDPEDGKGKPEPMSMSIMFPPEEIEKFAEEFGMPIEIVPWSAGGS [r8_337_TrROS]	1.42 ± 0.071 kcal/mol
SAGGSAGGSAGGPVIEIKVPSKEDALEAARKLLEELFGKKPEDMKITVEYNPEDKTIKIKSAGGSAGGSAGG [r7_387_TrROS_Hall]	0.333 ± 0.063 kcal/mol
SAGGSAGGSMKIKIEVDKETGYIVIEAEPGETIEIEIGGKKIKMEVIENEDGSLYFVFKIEKPSAGGSAGGS [r12_970_TrROS_Hall]	2.23 ± 0.12 kcal/mol
SAGGSKLTVEEIKKLFPNVEVTKKEDGTYEMRVTVEVTLPNGEKKKVEVTVKVEVKDGKIVKVEVTSAGGSA [r2_104_TrROS_Hall]	2.44 ± 0.15 kcal/mol

Sequence	folding stability dG unfold
SAGGSAGGELPPPPLLVVRVTVRRDGKELELELVVPSLEEALEALRALLPEEDLEIRVEVRLLPSAGGSAGG [r6_113_TrROS_Hall]	2.12 ± 0.089 kcal/mol
SAKKKVVELEIEIEVPPEDLTEEELKEKVLEALRKLFPDLKIKKIEIEVRVERKEDGSLKVTVKIKIEPSAG [r14_145_TrROS_Hall]	3.03 ± 0.13 kcal/mol
SAGMVIKIKASEELRELLKKLGLSEEEVKKLKIKLKVNGKEVEVEVEVDKETGMIYVRFKDTGKTFKLPSAG [r5_545_TrROS_Hall]	1.61 ± 0.042 kcal/mol
SAGGSAKKKIIEIKIKVKTKEEAKEAIEKLSEELKKKIKKIEIVEIKEKDGEYYVKIKIEVPPNEKSAGGSA [r15_244_TrROS_Hall]	1.97 ± 0.063 kcal/mol
SAGGSAGGSPEAPADRKLVALLRSPDSDTVYLVEITPDGIVAYNANNEKTPVSPEYLVAVFDASAGGSAGGS [r20_35_TrMRF]	0.883 ± 0.012 kcal/mol
SAGPYYIITVTIPLPNLSPDLQEDFPGQKVTFMFIVDPGMDMEQKRQIKEELRDFGIKDVDIMPADDIKSAG [r5_60_TrROS]	1.27 ± 0.026 kcal/mol
SAMTPEEIKKKVEELLKELAKELNAEVTSVKVDKETKTITVTVKVKLPNGETKTLTLKFTIDKDGKITFSAG [r14_183_TrROS_Hall]	3.67 ± 0.12 kcal/mol
SAGGSAGGSAGGMEVVIPLDKNERYLAYVLGEPKFVEFDPEKGYLVIPNTPPENVIVVKYSAGGSAGGSAGG [r7_200_TrMRF]	0.248 ± 0.05 kcal/mol
SAGPIKEKTITFPNGMRAKITDIQVGPPPDGEPLIKLKVKVEMWQPKRDPDGKQDGWQPMKMEMTLIIPSAG [r5_476_TrROS]	2.68 ± 0.18 kcal/mol
SAGGSAGGSASVVVTKETLPNGETRITTTTTTTTTVTVYDNNETVTTTTTTTTTTVVPKSLLSAGGSAGGSA [r18_34_JUSTAS]	0.601 ± 0.055 kcal/mol
SPPIEIKPAPENYLIAKIIDPKTNKVYYILIPKDAKLDQPALVYHPDKKEYIPLKEILDLLKKGYPLSISSA [r9_250_TrMRF]	2.09 ± 0.075 kcal/mol
SAGGSAGGSAGGPEVNIEVERYRLPNGGYLLVIRTSDGEEIVIEFDSPEEALKAAKEIAKSAGGSAGGSAGG [r11_955_TrMRF]	1.73 ± 0.035 kcal/mol
SAGGSAGGSAGGSGYTVKITLKNPDGTESTITISGTGSKEEIINSIKKKYPNNVTKVIESAGGSAGGSAGGS [r4_412_JUSTAS]	1.37 ± 0.16 kcal/mol
SAGNKVEIMLMVPMKPDPDGEPEIDPQMIREIAKAAGAEGRVEDVDIQPMPDYYMIRVRLPGKEIWIMSAGG [r19_398_TrROS]	1.46 ± 0.031 kcal/mol
SAGGSAGGSAGGGRRLVLVKVPPDVPEEVIREFARRLVEEGVPEPVVVERLEDDYALVLVSAGGSAGGSAGG [r7_283_TrMRF]	0.861 ± 0.21 kcal/mol
